Measurements published in patent US20180353525A1 (SOCPRA SCIENCES SANT ET HUMAINES S E C, published 2018).

How the values were obtained:
[1] = molecular target: T1, receptor for activated C kinase (RACK1), endogenous, HT-1080 cells (human, UniProt P63244 1-317); test: cell-based or functional assay
[2] = molecular target: T1, receptor for activated C kinase …; test: cell-based or functional assay; remark: listed apart in the source

Row | Binder | IC50 of doxorubicin, HT1080, MTT viability, C2 0.25 µM, 1% O2 (Experiment 2) [1] [nM] | IC50 of doxorubicin, HT1080, MTT viability, C2 0.25 µM, 21% O2 (Experiment 2) [1] [nM] | IC50 of doxorubicin, HT1080, MTT viability, C2 20.0 µM, 1% O2 (Experiment 2) [1] [nM] | IC50 of doxorubicin, HT1080, MTT viability, C2 20.0 µM, 21% O2 (Experiment 2) [1] [nM] | IC50 of doxorubicin, HT1080, MTT viability, C2 0.25 µM, 1% O2 (Experiment 1) [2] [nM] | IC50 of doxorubicin, HT1080, MTT viability, C2 0.25 µM, 21% O2 (Experiment 1) [2] [nM] | IC50 of doxorubicin, HT1080, MTT viability, C2 5.00 µM, 1% O2 (Experiment 1) [2] [nM] | IC50 of doxorubicin, HT1080, MTT viability, C2 5.00 µM, 21% O2 (Experiment 1) [2] [nM] | IC50 of doxorubicin, HT1080, MTT viability, C2WY→AA 0.25 µM, 1% O2 (Experiment 2) [1] [nM] | IC50 of doxorubicin, HT1080, MTT viability, C2WY→AA 0.25 µM, 21% O2 (Experiment 2) [1] [nM] | IC50 of doxorubicin, HT1080, MTT viability, C2WY→AA 20.0 µM, 1% O2 (Experiment 2) [1] [nM] | IC50 of doxorubicin, HT1080, MTT viability, C2WY→AA 20.0 µM, 21% O2 (Experiment 2) [1] [nM] | IC50 of doxorubicin, HT1080, MTT viability, C2WY→AA 0.25 µM, 1% O2 (Experiment 1) [2] [nM] | IC50 of doxorubicin, HT1080, MTT viability, C2WY→AA 0.25 µM, 21% O2 (Experiment 1) [2] [nM] | IC50 of doxorubicin, HT1080, MTT viability, C2WY→AA 5.00 µM, 1% O2 (Experiment 1) [2] [nM] | IC50 of doxorubicin, HT1080, MTT viability, C2WY→AA 5.00 µM, 21% O2 (Experiment 1) [2] [nM]
1 | RMWYNFDHNY [C2 peptide (RMWYNFDHNY)] | 30.6 | 11.7 | 15.7 | 10 | 39.7 | 12.2 | 39.1 | 17.2 | – | – | – | – | – | – | – | –
2 | RMAANFDHNY [C2WY→AA peptide (RMAANFDHNY)] | – | – | – | – | – | – | – | – | 98.9 | 12.5 | 74.3 | 10.9 | 99.1 | 21.3 | 76.4 | 16.4
